Where two headings read alike, the source gives them in different places.

Series [1] deals with sulfamidase deficient mice (Sgsh−/−). Description: Brain enzyme activity one hour after intranasal administration of sulfamidase forms. The following applies: 2 mg/kg, FIG. 4.
Series [2] shares this test system. The following applies: mouse, in vivo, 2 mg/kg.
For series [3], the system named is α-iduronidase-deficient mice (Idua−/−; Homozygote). Put plainly: Brain enzyme activity one hour after intranasal administration of forms of iduronidase. The following applies: 2 mg/kg, FIG. 1.
The test system of a further series is brain. Particulars: in vivo; cited from earlier work.
The test system of series [4] is α-iduronidase-deficient mice (Idua−/−; Homozygote). The following applies: mouse, in vivo.
Procedure: One hour following administration the mice were sacrificed and their brains were removed and dissected to isolate tissue from the olfactory bulb, the cerebral cortex, and “other parts of the brain.” The total amount of tissue protein recovered from these various portions was ˜1 mg, ˜25 mg, and ˜50 mg, respectively. The various tissues were then assayed for IDUA activity, which was expressed relative to the wet weight of each part of brain.
For series [5], the system named is mouse model of mucopolysaccharidosis (MPS) type I. Put plainly: Reduction of brain glycosaminoglycans by intranasal treatment (carbazole assay). The following applies: intranasal 1 mg/kg every other day for two weeks, MPS I mice, *p<0.05, FIG. 3. Type of series: in vivo. As to the method:
A mouse model of mucopolysaccharidosis (MPS) type I, which is null for the lysosomal enzyme, α-L-iduronidase (IDUA), was used to measure the amount of glycosaminoglycans in the brain following intranasal administration of 1 mg/kg IDUA or GNeo-AP-IDUA every other day for two weeks. Quantification of glycoaminoglycan was performed using the carbazole assay. […] Data are represented as mean±SD (n=5 or 6). One-way analysis of variance (ANOVA) with Tukey's post-hoc analysis for comparison was applied for data analysis (*p<0.05).

The subject of series [6] is α-iduronidase-deficient mice (Idua−/−; Homozygote). The following applies: mouse, in vivo, 2 mg/kg.

B1: GNeo-SGSH: Sulfamidase (SGSH) conjugated to guanidinoneomycin (conjugate, UniProt P51688 21-502, looked up)
N-sulphoglucosamine …: RPRNALLLLADDGGFESGAYNNSAIATPHLDALARRSLLFRNAFTSVSSCSPSRASLLTGLPQHQNGMYGLHQDVHHFNSFDKVRSLPLLLSQAGVRTGIIGKKHVGPETVYPFDFAYTEENGSVLQVGRNITRIKLLVRKFLQTQDDRPFFLYVAFHDPHRCGHSQPQYGTFCEKFGNGESGMGRIPDWTPQAYDPLDVLVPYFVPNTPAARADLAAQYTTVGRMDQGVGLVLQELRDAGVLNDTLVIFTSDNGIPFPSGRTNLYWPGTAEPLLVSSPEHPKRWGQVSEAYVSLLDLTPTILDWFSIPYPSYAIFGSKTIHLTGRSLLPALEAEPLWATVFGSQSHHEVTMSYPMRSVQHRHFRLVHNLNFKMPFPIDQDFYVSPTFQDLLNRTTAGQPTGWYKDLRHYYYRARWELYDRSRDPHETQNLATDPRFAQLLEMLRDQLAKWQWETHDPWVCAPDGVLEEKLSPQCQPLHNEL
modifications: guanidinoneomycin conjugate
Regarding B1, the “enzyme activity in brain extracts (uptake into the brain)” value (“enzyme activity in brain extracts” for short) in series [1] (one hour after administration) is “rapid uptake into the brain”. The “level of activity in the olfactory bulb of brain versus wildtype animals” value in series [1] (one hour) was “exceeded that found in wildtype animals”.

B2: SGSH: Sulfamidase with mannose-6-phosphate terminated glycans, not conjugated to guanidinoneomycin (protein, UniProt P51688 21-502, looked up)
N-sulphoglucosamine …: B1 N-sulphoglucosamine …
For B2, the “enzyme activity in brain extracts” value in series [2] is on record as “not taken up efficiently”.

B3: IDUA: recombinant enzyme iduronidase (Aldurazyme), not conjugated to guanidinoneomycin (protein, UniProt P35475 28-653, looked up)
Alpha-L-iduronidase: APHLVHVDAARALWPLRRFWRSTGFCPPLPHSQADQYVLSWDQQLNLAYVGAVPHRGIKQVRTHWLLELVTTRGSTGRGLSYNFTHLDGYLDLLRENQLLPGFELMGSASGHFTDFEDKQQVFEWKDLVSSLARRYIGRYGLAHVSKWNFETWNEPDHHDFDNVSMTMQGFLNYYDACSEGLRAASPALRLGGPGDSFHTPPRSPLSWGLLRHCHDGTNFFTGEAGVRLDYISLHRKGARSSISILEQEKVVAQQIRQLFPKFADTPIYNDEADPLVGWSLPQPWRADVTYAAMVVKVIAQHQNLLLANTTSAFPYALLSNDNAFLSYHPHPFAQRTLTARFQVNNTRPPHVQLLRKPVLTAMGLLALLDEEQLWAEVSQAGTVLDSNHTVGVLASAHRPQGPADAWRAAVLIYASDDTRAHPNRSVAVTLRLRGVPPGPGLVYVTRYLDNGLCSPDGEWRRLGRPVFPTAEQFRRMRAAEDPVAAAPRPLPAGGRLTLRPALRLPSLLLVHVCARPEKPPGQVTRLRALPLTQGQLVLVWSDEHVGSKCLWTYEIQFSQDGKAYTPVSRKPSTFNLFVFSPDTGAVSGSYRVRALDYWARPGPFSDPVPYLEVPVPRGPPSPGNP
As for B3, the “enzyme activity in brain extracts” value in series [3] was “not taken up efficiently”. The “levels of enzyme in the brain after intranasal delivery” value with brain is recorded as “extremely low”.

B4: AP-IDUA: iduronidase modified with alkaline phosphatase only, not conjugated to GNeo (protein, UniProt P35475 28-653, looked up)
Alpha-L-iduronidase: B3 Alpha-L-iduronidase
modifications: alkaline phosphatase modified
For the molecule B4, the “enzyme activity in brain extracts” value in series [3] is “does not appear to facilitate efficient transport into the brain”.

B5: GNeo-AP-IDUA: iduronidase (Aldurazyme) treated with alkaline phosphatase to remove mannose-6-phosphate groups, then conjugated to guanidinoneomycin via GNeo-NHS (conjugate, UniProt P35475 28-653, looked up)
Alpha-L-iduronidase: B3 Alpha-L-iduronidase
modifications: guanidinoneomycin conjugate; alkaline phosphatase modified
With B5, in series [4], the “dose at which uptake into the olfactory bulb (OB) and cerebral cortex (CC) saturated” value is reported as around 1 mg/kg; the “enzyme concentration in the OB versus the CC, based on enzyme specific activity (nmols/hr/mg of tissue protein)” value is given as “much greater than in the CC”; the “share of the administered dose in Other parts of the Brain” value is around 64%; the “share of the administered dose in the CC” value is around 23%. The “share of the administered dose in the OB” value in series [4] is around 13%. Besides, the “total GAG level in the mouse brain compared with untreated mouse brains” value in series [5] is “significantly decreased”. The “enzyme activity in brain extracts” value in series [6] was “significantly more enzymatic activity”.

Source of the values: patent US9757468B2, “Intranasal administration of guanidinylated aminoglycosides” (The Regents of the University of California, priority 2013, dated 2017).
